Experimental data reported in paper PMC5291249.
Values joined by “and” are separate entries in the source; they are usually repeats but may differ in a detail not shown here. Identical values can stand only once. Like-named read-outs stand apart in the source and are kept apart here.

Assays:
Assay in all cases: cross-linking; glutaraldehyde cross-linking (0.01-0.5%, 0.025% chosen as optimal) of recombinant p53 in solution without DNA, 25°C, Tris or HEPES buffer pH 7.5, 100 mM NaCl, then 4-12% MOPS SDS-PAGE (coomassie, silver stain or immunoblot)
[1] = molecular target: murine p53 mutant with the double substitution M340Q/L344R (murine) (UniProt P02340)
[2] = molecular target: recombinant murine p53 (murine) (UniProt P02340)
[3] = molecular target: recombinant murine p53 (murine) (UniProt P02340); remark: listed apart in the source

| stoichiometry N [1] | stoichiometry N [2] | stoichiometry N [3] | Substance |
| --- | --- | --- | --- |
| 2 and 4 | – | – | murine p53 mutant with the double substitution M340Q/L344R (from UniProt P02340 1-390) (natural protein) |
| – | 8 | 4 | recombinant murine p53 (from UniProt P02340 1-390) (natural protein) |
